Measured values taken from patent US20160082074A1.

Tests used:
calcineurin = test: cell-based or functional assay
[1] = molecular target: human cyclophilin A (human) (UniProt P62937); test: cell-based or functional assay
human cyclophilin A (human), sequence (P62937 whole entry): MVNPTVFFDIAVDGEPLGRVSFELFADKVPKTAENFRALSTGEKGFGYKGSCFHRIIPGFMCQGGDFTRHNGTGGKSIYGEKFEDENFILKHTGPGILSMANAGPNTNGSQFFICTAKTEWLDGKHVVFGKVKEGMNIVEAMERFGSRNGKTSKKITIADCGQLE

In vitro inhibition CnA IC50 (calcineurin) [nM] | In vitro inhibition human CypA IC50 [nM] (protease-coupled PPIase assay) [1] | Substance
50 | – | CypA/CsA complex
– | 9.1 | cyclosporin A (peptide)
